Results on two sequences are retold here after PMC6429324.

For data set [1], the system named is bevacizumab (Avastin) (humanized IgG (organism not stated)). Description: bead pull-down, HT-RPLC of residual solution. The settings on record: 50 ug/mL bevacizumab, Plasma samples diluted 10x in 175 mM trehalose, 42 mM NaH2PO4, 8 mM Na2HPO4, 0.4% Tween-20, pH 7.4, 0.1% peptone, room temperature, 1 h, bead comparison: beads …; for fraction of antibody not captured (% not captured): immobilization effect, 5'-aminohexyl.

The test system is the same in data set [2]. The experiment in a line: bead pull-down, HT-RPLC of eluate. The conditions noted are these: 10 ug/mL in human plasma, 5'-biotin, Plasma samples diluted 10x in 175 mM trehalose, 42 mM NaH2PO4, 8 mM Na2HPO4, 0.4% Tween-20, pH 7.4, 0.1% peptone, room temperature, 1 h, bead comparison: beads ….

Bounds are passed on as bounds.

As for “GCGGTTGGTGGTAGTTACGTTCGC [anti-bevacizumab DNA aptamer, 5'-aminohexyl]”, the fraction of antibody not captured (% not captured) was found to be 85.5 in data set [1] (carboxylic acid beads) and 75.8 in data set [1] (tosylactivated beads).
Turning to “GCGGTTGGTGGTAGTTACGTTCGC [anti-bevacizumab DNA aptamer, 5'-biotin]”, the binding signal was 101 % recovery in data set [2] (first use of beads); 97.3 % recovery in data set [2] (third use of beads); above 99.8 % captured in data set [1] (streptavidin beads, 5'-biotin).
